From EP2717941B1
Each block holds one substance with its values, some of them ahead of it.

How the values were obtained:
Assay in all cases: cell-based or functional assay
hCXCR4 (human) = hCXCR4 (human) (UniProt P61073)
hCCR9 (human) = hCCR9 (human) (UniProt P51686)
CCR6 (human) = CCR6 (human) (UniProt P51684)
hCCR10 (human) = hCCR10 (human) (UniProt P46092)
hCXCR3 (human) = hCXCR3 (human) (UniProt P49682)
hCCR2b (human) = hCCR2b (human) (UniProt P41597)
CCR4 (human) = CCR4 (human) (UniProt P51679)
Sequence of CCR4 (human) (P51679 whole entry): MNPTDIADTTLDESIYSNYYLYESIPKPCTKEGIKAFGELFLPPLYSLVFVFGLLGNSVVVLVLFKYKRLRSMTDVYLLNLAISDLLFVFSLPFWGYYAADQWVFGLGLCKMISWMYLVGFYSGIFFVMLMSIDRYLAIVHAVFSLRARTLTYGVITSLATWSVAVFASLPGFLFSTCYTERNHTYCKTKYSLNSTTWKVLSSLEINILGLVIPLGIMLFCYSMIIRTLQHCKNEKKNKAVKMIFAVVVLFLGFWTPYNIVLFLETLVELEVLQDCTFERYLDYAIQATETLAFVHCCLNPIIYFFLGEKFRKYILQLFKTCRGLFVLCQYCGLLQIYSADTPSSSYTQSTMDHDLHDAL

[1] = biological target: chemokine receptor CCR7 (human) (UniProt P32248)
Sequence of chemokine receptor CCR7 (human) (P32248 25-378): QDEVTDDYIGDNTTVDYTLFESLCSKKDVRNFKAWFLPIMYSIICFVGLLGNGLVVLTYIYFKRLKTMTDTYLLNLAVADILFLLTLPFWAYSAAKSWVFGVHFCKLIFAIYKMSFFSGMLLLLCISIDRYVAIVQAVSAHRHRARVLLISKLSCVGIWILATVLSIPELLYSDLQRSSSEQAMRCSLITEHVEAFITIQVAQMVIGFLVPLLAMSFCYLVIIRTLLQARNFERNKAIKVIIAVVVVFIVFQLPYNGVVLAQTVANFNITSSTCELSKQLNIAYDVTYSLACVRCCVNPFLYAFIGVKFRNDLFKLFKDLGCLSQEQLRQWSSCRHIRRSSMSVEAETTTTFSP

Sequence of hCCR9 (human) (P51686 whole entry): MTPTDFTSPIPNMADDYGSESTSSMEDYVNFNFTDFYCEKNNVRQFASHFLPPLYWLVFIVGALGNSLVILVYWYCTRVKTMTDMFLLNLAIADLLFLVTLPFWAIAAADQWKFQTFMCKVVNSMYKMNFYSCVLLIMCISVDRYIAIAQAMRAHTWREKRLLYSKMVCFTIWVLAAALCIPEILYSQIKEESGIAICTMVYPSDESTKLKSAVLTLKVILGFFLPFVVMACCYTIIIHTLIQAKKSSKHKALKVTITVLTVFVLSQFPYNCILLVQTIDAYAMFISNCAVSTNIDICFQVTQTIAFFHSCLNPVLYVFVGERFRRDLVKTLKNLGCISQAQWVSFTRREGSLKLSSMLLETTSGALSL
Sequence of CCR6 (human) (P51684 whole entry): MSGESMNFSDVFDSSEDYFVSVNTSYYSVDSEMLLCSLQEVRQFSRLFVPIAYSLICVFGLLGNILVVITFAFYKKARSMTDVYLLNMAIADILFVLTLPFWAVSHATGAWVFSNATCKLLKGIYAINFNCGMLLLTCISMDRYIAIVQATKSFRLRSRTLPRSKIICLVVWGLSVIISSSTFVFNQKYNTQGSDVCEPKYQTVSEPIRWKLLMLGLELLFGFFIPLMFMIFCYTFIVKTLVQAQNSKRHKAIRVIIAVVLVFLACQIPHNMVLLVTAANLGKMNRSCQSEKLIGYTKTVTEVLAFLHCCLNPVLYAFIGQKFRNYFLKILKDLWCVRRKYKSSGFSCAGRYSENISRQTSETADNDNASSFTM
Sequence of hCXCR3 (human) (P49682 whole entry): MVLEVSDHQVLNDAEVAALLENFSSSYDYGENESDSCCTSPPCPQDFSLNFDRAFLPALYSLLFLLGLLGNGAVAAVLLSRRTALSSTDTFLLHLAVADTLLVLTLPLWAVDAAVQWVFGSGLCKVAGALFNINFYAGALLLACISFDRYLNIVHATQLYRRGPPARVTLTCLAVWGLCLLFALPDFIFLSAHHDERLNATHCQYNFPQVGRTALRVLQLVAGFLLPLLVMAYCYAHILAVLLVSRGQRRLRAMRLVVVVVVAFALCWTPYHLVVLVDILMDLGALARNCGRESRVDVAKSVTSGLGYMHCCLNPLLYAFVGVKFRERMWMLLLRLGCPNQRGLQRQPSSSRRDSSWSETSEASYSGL
Sequence of hCCR2b (human) (P41597 other isoform, or with tags, fused parts or gaps limits assumed): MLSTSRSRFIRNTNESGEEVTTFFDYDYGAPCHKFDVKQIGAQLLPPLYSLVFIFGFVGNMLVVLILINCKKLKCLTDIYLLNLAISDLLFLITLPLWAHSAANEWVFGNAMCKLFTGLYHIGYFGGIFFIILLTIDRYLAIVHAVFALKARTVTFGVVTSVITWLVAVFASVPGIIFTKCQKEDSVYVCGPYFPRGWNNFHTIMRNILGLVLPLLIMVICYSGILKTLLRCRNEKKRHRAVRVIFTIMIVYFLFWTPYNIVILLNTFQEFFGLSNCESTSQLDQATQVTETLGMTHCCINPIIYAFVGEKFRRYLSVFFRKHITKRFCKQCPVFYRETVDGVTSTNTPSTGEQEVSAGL
Sequence of hCCR10 (human) (P46092 whole entry): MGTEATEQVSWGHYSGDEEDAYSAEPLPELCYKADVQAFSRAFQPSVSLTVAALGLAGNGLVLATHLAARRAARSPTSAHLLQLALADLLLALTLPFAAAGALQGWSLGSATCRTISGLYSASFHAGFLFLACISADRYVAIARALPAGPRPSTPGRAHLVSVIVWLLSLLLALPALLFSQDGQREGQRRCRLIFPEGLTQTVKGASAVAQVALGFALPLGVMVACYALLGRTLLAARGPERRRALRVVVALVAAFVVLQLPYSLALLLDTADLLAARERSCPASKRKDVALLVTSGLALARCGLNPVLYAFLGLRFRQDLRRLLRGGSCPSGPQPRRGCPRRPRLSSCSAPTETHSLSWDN
Sequence of hCXCR4 (human) (P61073 whole entry): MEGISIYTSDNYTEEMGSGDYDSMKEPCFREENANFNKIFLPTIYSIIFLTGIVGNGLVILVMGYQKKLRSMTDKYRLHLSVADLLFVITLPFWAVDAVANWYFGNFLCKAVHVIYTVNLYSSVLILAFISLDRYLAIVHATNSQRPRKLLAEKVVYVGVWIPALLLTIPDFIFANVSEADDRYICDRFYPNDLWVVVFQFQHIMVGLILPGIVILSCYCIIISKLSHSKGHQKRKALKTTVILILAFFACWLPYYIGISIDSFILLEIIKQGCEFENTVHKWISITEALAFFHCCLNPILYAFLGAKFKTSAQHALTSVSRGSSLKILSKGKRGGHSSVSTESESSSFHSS

- EC50, agonist activity, Aequorin assay (hCXCR4 (human)): 17.3 nM
Substance: biotinSDF-1α (CXCL12), SDF-1α derivatised at the ε-amino side chain functionality of Lys(64) with Biotin (from UniProt P48061 22-67) (ligand)

- EC50, agonist activity, Aequorin assay (hCCR9 (human)): 63.6 nM
Substance: biotinTECK(Met to Nleu substitution) (CCL25), derivatised at the ε-amino side chain functionality of Lys72 with PEG-Biotin (from UniProt O15444 25-97) (ligand)

- reduction of CCR6-expressing cells by the column (flow cytometry before and after passage) (CCR6 (human)): < 15%
Substance: biotinylated MIP-3alpha (from UniProt P78556 27-96) (ligand)

- EC50, agonist activity, Aequorin assay (hCCR10 (human)): 33.5 nM
Substance: recombinant native CTAC (from UniProt Q9Y4X3 25-112) (ligand)

- EC50, agonist activity, Aequorin assay (hCXCR3 (human)): 4.4 nM
Substance: recombinant native IP-10 (from UniProt P02778 22-98) (ligand)

- EC50, agonist activity, Aequorin assay (hCXCR3 (human)): 0.7 nM
Substance: recombinant native ITAC (from UniProt O14625 22-94) (ligand)

- EC50, Aequorin assay (partial agonist) (hCCR2b (human)): 23.5 nM
Substance: recombinant native MCP-2 (from UniProt P80075 24-99) (ligand)

- EC50, agonist activity, Aequorin assay (CCR4 (human)): 3.6 nM
Substance: recombinant native MDC (from UniProt O00626 25-93) (ligand)

- EC50, agonist activity, Aequorin assay (CCR6 (human)): 1 nM
Substance: recombinant native MIP-3α (from UniProt P78556 27-96) (ligand)

- EC50, agonist activity, Aequorin assay [1]: 1.6 nM
Substance: recombinant native MIP-3β (from UniProt Q99731 22-98) (ligand)

- EC50, agonist activity, Aequorin assay (CCR4 (human)): 2.6 nM
Substance: recombinant native TARC (from UniProt Q92583 24-94) (ligand)

- EC50, agonist activity, Aequorin assay (hCCR9 (human)): 67.9 nM
Substance: recombinant native TECK (from UniProt O15444 24-150) (ligand)
